# Experimental data: patent publication US20040258663A1, “Compositions and methods for enhanced mucosal delivery of interferon alpha” (Nastech Pharmaceutical Company Inc., priority 2003, published 2004)
# Columns and labels:
# [1] = system: ciliary function in epithelial cell cultures; details: cited from earlier work
# EpiAirway cell membrane = type: cell-based; details: Table 11
# Source text: While measurement of mitochondrial reductase activity by MTT reduction is a sensitive probe of cell viability, the assay necessarily destroys the cells and therefore can be carried out only at the end of each study. When cells undergo necrotic lysis, their cytotosolic contents are spilled into the surrounding medium, and cytosolic enzymes such as lactic dehydrogenase (LDH) can be detected in this medium. An assay for LDH in the medium can be performed on samples of medium removed at each time point of the two-hour determination of permeation kinetics.
# A. The recommended LDH assay for evaluating cytolysis of the EpiAirway units is based on conversion of lactate to pyruvate with generation of NADH from NAD. The NADH is then reoxidized along with simultaneous reduction of the tetrazolium salt INT, catalyzed by a crude “diaphorase” preparation. The formazan formed from reduction of INT is soluble, so that the entire assay for LDH activity can be carried out in a homogenous aqueous medium containing lactate, NAD, diaphorase, and INT.
# B. The assay for LDH activity is carried out on 50 μL aliquots from samples of “supernatant” medium surrounding an EpiAirway unit and collected at each time point. These samples were either stored for no longer than 24 h in the refrigerator or were thawed after being frozen within a few hours after collection. Each EpiAirway unit generates samples of supernatant medium collected at 15 min, 30 min, 1 h, and 2 h after application of the test material. The aliquots are all transferred to a 96 well microplate.
# C. A 50 μL aliquot of medium which had not been exposed to a unit serves as a “blank” or negative control of 0% cytotoxicity. […] Thus, within experimental error, these sham-treated units show no cytolysis of the epithelial cells over the time course of the permeation kinetics measurements.
# D. To prepare a sample of supernatant medium reflecting the level of LDH released after 100% of the cells in a unit have lysed, a unit which had not been subjected to any prior manipulations is added to a well of a 6-well microplate containing 0.9 mL of medium as in the protocol for determination of permeation kinetics, the plate containing the unit is frozen at −80° C., and the contents of the well are then allowed to thaw. This freeze-thaw cycle effectively lyses the cells and releases their cytosolic contents, including LDH, into the supernatant medium. A 50 μL aliquot of the medium from the frozen and thawed cells is added to the 96-well plate as a positive control reflecting 100% cytotoxicity.
# E. To each well containing an aliquot of supernatant medium, a 50 μL aliquot of the LDH assay reagent is added. The plate is then incubated for 30 minutes in the dark.
# F. The reactions are terminated by addition of a “stop” solution of 1 M acetic acid, and within one hour of addition of the stop solution, the absorbance of the plate is determined at 490 nm.
# G. Computation of percent cytolysis is based on the assumption of a linear relationship between absorbance and cytolysis, with the absorbance obtained from the medium alone serving as a reference for 0% cytolysis and the absorbance obtained from the medium surrounding a frozen and thawed unit serving as a reference for 100% cytolysis.
# [2] = Bioavailability of nasal interferon-α in healthy male volunteers versus subcutaneous administration; type: in vivo, human; details: for Cmax: 3 MIU, SC, human plasma
# Source text: The present example provides a non-blinded study to determine the uptake of intranasally administered interferon-α in combination with one or more intranasal delivery-enhancing agents into the blood serum in healthy male volunteers.
# Twelve healthy male subjects are enrolled in the step and each receives all 3 test product in a cross over fashion.
# Each receive all 3 test products.
# The protocol involved three doses of the same test product in a dose escalation manner.
# The absorption and tolerance results of all products tested were tabulated and analyzed for Cmax, Tmax, and bioavailability (Area under concentration curve, AUC).
# For nasal and injectable preparations in Protocols 1 and 2, 7 mL blood samples were drawn at 0 (prior to dose), 10, 20, 30, 45, 60, 75, 90, 120, 180, 240, 360, and 480 minutes post dosing into appropriate vacutainers.
# The blood samples were centrifuged and the serum assayed for drug concentration using ELISA Method.
# This is a single dose, parallel group study to evaluate absorption, tolerance and pharmacodynamic parameters of Interferon-α-2b by two routes of administration: subcutaneous and intranasally. The study involves twelve healthy male subjects randomly assigned six per group (6 subjects subcutaneous and 6 intranasal). The objective of the study is to evaluate the absorption, tolerance and pharmacodynamic parameters of intranasal administration of Interferon-α-2b by formulations of the present invention versus subcutaneous administration of interferon-α-2b (IntronA®, Schering, Corp.).
# When receiving the intranasal dosage formulations, the subjects were seated and instructed to gently blow their nose before dosing. During dosing, the other nostril must be closed with the forefinger. They were also instructed to tilt their heads slightly back for dosing and to return their heads to an upright position while sniffing in gently immediately following dosing. Subjects must avoid additional sniffing and must remain in a seated position with head upright for 5 minutes after dosing. […]
# Serum drug concentrations were measured using a suitable analytical method. […]
# [3] = system: EpiAirway™ Cell Membrane (mucosal epithelial cell layer)
# Experimental: (§1) The epithelial cells are grown on porous membrane-bottomed cell culture inserts at an air-liquid interface, which results in differentiation of the cells to a highly polarized morphology. […] The inserts have a diameter of 0.875 cm, providing a surface area of 0.6 cm^2.
# (§2) A. On arrival, the units are placed onto sterile supports in 6-well microplates. Each well receives 5 mL of proprietary culture medium. This DMEM-based medium is serum free but is supplemented with epidermal growth factor and other factors. The medium is always tested for endogenous levels of any cytokine or growth factor which is being considered for intranasal delivery, but has been free of all cytokines and factors studied to date except insulin. The 5 mL volume is just sufficient to provide contact to the bottoms of the units on their stands, but the apical surface of the epithelium is allowed to remain in direct contact with air. Sterile tweezers are used in this step and in all subsequent steps involving transfer of units to liquid-containing wells to ensure that no air is trapped between the bottoms of the units and the medium.
# (§3) B. The units in their plates are maintained at 37° C. in an incubator in an atmosphere of 5% CO2 in air for 24 hours. At the end of this time the medium is replaced with fresh medium and the units are returned to the incubator for another 24 hours.
# (§4) A. A “kit” of 24 EpiAirway units can routinely be employed for evaluating five different formulations, each of which is applied to quadruplicate wells. Each well is employed for determination of permeation kinetics (4 time points), transepithelial resistance, mitochondrial reductase activity as measured by MTT reduction, and cytolysis as measured by release of LDH. An additional set of wells is employed as controls, which are sham treated during determination of permeation kinetics, but are otherwise handled identically to the test sample-containing units for determinations of transepithelial resistance and viability.
# (§5) B. In all experiments, the mucosal delivery formulation to be studied is applied to the apical surface of each unit in a volume of 100 μL, which is sufficient to cover the entire apical surface. An appropriate volume of the test formulation at the concentration applied to the apical surface (no more than 100 μL is generally needed) is set aside for subsequent determination of concentration of the active material by ELISA or other designated assay.
# (§6) D. In order to minimize potential sources of error and avoid any formation of concentration gradients, the units are transferred from one 0.9 mL-containing well to another at each time point in the study. These transfers are made at the following time points, based on a zero time at which the 100 αL volume of test material was applied to the apical surface: 15 minutes, 30 minutes, 60 minutes, and 120 minutes.
# (§7) E. In between time points the units in their plates are kept in the 37° C. incubator. Plates containing 0.9 mL medium per well are also maintained in the incubator so that minimal change in temperature occurs during the brief periods when the plates are removed and the units are transferred from one well to another using sterile forceps.
# [4] = system: EpiAirway™ Cell Membrane (mucosal epithelial cell layer); experiment: Permeation kinetics of interferon-α-2b measured by ELISA assay; details: Table 9
# Experimental: as §1, §2, §3, §4, §5, §6, §7
Substance,concentration producing ciliostasis / inhibiting ciliary motility [1],"% Dead Cells at Time-Intervals (min), 0 (EpiAirway cell membrane; 0 min)","% Dead Cells at Time-Intervals (min), 15 (EpiAirway cell membrane; 15 min)","% Dead Cells at Time-Intervals (min), 30 (EpiAirway cell membrane; 30 min)","% Dead Cells at Time-Intervals (min), 60 (EpiAirway cell membrane; 60 min)","% Dead Cells at Time-Intervals (min), 120 (EpiAirway cell membrane; 120 min)",Cmax ([2]; 0 to 3 hour),Cmax ([2]; 0 to 4 hour),"maximum concentration of interferon-α in the blood serum (Cmax) ([2]; subcutaneous, 3 MIU dose, at 3 hours post dosing)",Fold Increase [3],"% Permeated at Time-intervals (min), 0 min ([4]; 0 min)","% Permeated at Time-intervals (min), 15 min ([4]; 15 min)","% Permeated at Time-intervals (min), 30 min ([4]; 30 min)","% Permeated at Time-intervals (min), 60 min ([4]; 60 min)","% Permeated at Time-intervals (min), 120 min ([4]; 120 min)"
2-alkyl-4-hydroxyquinolines [pyo compound],50 µg/mL,,,,,,,,,,,,,,
interferon α-2b [Intron A],,0%,0.84%,0.93%,1.65%,4.27%,4.0 IU/mL,6.8 IU/mL,4.0 IU/mL,1 fold,0%,0.000%,0.003%,0.011%,0.022%
